In patent publication US6375944B1, “Methods and compositions for enhancing the immunostimulatory effect of interleukin-12” (The Wistar Institute of Anatomy and Biology, priority 1998, dated 2002):
Read-outs that look alike come from different tables or passages of the source.

Columns and labels:
[1] = system: SCK cells; details: cited from earlier work
[2] = system: SCK cells; assay: Irradiated wild-type SCK cell vaccination followed by SCK tumor cell challenge; type: in vivo, A/J mice; details: SCK-vaccinated mice; at 28 days; rmIL-12 alone, or L-NAME/D-NAME given with rmIL-12
Excerpt: Female A/J mice (8 mice per group) were vaccinated with 10^6 irradiated SCK cells and received either PBS, rmIL-12, rmIL-12+L-NAME or rmIL-12 and D-NAME on days 0-4 and 7-11. Mice were challenged fourteen days after vaccination with 2.5×10^4 SCK cells in the opposite flank. Tumorigenesis was scored daily, as described above.

[3] = system: SCK tumors; assay: Antitumor activity of rmIL-12 against SCK tumors (tumorigenesis scored daily); type: in vivo, A/J mice; details: L-NAME given with rmIL-12
Description: Female A/J mice were injected with 2.5×10^4 SCK cells and either PBS, rmIL-12, rmIL-12+L-NAME or rmIL-12 and D-NAME on days 0-4 and 7-11. Tumorigenesis was scored daily, as described above.

B1: rmIL-12: recombinant murine Interleukin-12, heterodimeric cytokine, from Genetics Institute (protein, UniProt P43431 23-215; P43432 23-335, looked up)
Interleukin-12 subunit alpha: RVIPVSGPARCLSQSRNLLKTTDDMVKTAREKLKHYSCTAEDIDHEDITRDQTSTLKTCLPLELHKNESCLATRETSSTTRGSCLPPQKTSLMMTLCLGSIYEDLKMYQTEFQAINAALQNHNHQQIILDKGMLVAIDELMQSLNHNGETLRQKPPVGEADPYRVKMKLCILLHAFSTRVVTINRVMGYLSSA
Interleukin-12 subunit beta: MWELEKDVYVVEVDWTPDAPGETVNLTCDTPEEDDITWTSDQRHGVIGSGKTLTITVKEFLDAGQYTCHKGGETLSHSHLLLHKKENGIWSTEILKNFKNKTFLKCEAPNYSGRFTCSWLVQRNMDLKFNIKSSSSSPDSRAVTCGMASLSAEKVTLDQRDYEKYSVSCQEDVTCPTAEETLPIELALEARQQNKYENYSTSFFIRDIIKPDPPKNLQMKPLKNSQVEVSWEYPDSWSTPHSYFSLKFFVRIQRKKEKMKETEEGCNQKGAFLVEKTSTEVQCKGGNVCVQAQDRYYNSSCSKWACVPCRVRS
Effect on protection by irradiated SCK cell vaccination ([1]; challenged 14 days after vaccination): did not improve protection | Effect on protection by irradiated SCK cell vaccination ([1]; challenged at 28 days): did improve protection | level of protection [2]: 75% | median days to tumor appearance ([3]; 2.5×10^4 SCK cells, treatment days 0-4 and 7-11, 9 days without rmIL-12): 14 days | delay of tumor appearance vs. untreated mice ([3]; treatment started on day of SCK cell injection): about 5 days
